Reference: publication PMC2700515 (The Journal of Cell Biology, 2009)

Columns and labels:
[1] = biological target: T1, hCen2, purified (GST removed) (human, UniProt P41208 1-172); experiment: pull-down
T1 sequence: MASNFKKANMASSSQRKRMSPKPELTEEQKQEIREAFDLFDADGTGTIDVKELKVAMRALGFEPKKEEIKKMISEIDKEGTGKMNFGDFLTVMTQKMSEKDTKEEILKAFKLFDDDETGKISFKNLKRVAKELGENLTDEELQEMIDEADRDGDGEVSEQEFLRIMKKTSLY

[2] = biological target: T2, hCen3, purified (GST removed) (human, UniProt O15182 1-167); experiment: pull-down
T2 sequence: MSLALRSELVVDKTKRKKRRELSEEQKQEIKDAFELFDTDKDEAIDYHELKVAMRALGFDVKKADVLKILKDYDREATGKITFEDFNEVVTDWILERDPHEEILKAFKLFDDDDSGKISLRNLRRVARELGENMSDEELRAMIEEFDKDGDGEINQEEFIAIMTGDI

binding result [1]: binds | binding result [2]: binds
B1: GST-hPOC5 CBR2+3 (aa 222-304) (domain or fragment)
chain: EISIGRKDEVISSLSHAIGKQKEKIELMRTFFHWRIGHVRARQDVYEGKLADQYYQRTLLKKVWKVWRSVVQKQWKDVVERAC
